T1: human ASIC1 (human, UniProt P78348 1-528)
T1 construct: Ion channel subunit expressed on 3T3 (3T3/hASIC1) or HEK293 cells (HEK/hASIC1; HEK293 CL:1F10 transient); also called hASIC1; human ASIC1a
T1 sequence: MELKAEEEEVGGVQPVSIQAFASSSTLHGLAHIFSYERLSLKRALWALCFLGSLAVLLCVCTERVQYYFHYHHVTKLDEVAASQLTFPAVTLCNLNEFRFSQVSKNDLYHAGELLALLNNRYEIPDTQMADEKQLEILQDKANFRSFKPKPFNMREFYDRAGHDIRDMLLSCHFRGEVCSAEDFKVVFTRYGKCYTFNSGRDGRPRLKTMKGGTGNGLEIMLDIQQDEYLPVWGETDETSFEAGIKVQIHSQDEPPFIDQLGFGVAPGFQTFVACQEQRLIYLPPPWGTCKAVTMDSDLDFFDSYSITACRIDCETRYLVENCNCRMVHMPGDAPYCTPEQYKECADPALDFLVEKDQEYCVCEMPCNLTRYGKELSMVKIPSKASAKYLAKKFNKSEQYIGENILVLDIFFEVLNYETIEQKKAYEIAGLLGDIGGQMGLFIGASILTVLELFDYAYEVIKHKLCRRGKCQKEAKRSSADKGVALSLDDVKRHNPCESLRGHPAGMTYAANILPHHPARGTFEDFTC

T2: human ASIC3 (human, UniProt Q9UHC3 1-531)
T2 construct: whole, on cells; Expressed on 3T3 cells (3T3/hASIC3) or HEK293 cells (HEK/hASIC3-QCells); also called hASIC3
T2 sequence (looked up): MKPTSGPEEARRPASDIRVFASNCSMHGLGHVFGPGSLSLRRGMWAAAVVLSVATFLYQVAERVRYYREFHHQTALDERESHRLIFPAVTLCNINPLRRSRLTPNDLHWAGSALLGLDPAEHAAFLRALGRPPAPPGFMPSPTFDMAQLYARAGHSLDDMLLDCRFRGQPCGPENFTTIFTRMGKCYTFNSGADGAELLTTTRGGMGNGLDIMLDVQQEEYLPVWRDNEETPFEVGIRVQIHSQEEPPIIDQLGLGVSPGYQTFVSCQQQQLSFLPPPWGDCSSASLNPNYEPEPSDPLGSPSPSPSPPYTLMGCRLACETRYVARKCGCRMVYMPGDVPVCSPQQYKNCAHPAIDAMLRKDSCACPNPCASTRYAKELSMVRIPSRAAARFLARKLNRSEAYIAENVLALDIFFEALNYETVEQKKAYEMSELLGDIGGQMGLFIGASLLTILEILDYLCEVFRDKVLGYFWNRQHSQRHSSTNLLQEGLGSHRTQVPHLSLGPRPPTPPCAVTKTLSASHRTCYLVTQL

T3: human ASIC1/ASIC3 channels (co-expressed human ASIC1a and human ASIC3) (human, UniProt Q9UHC3 1-531)
T3 construct: whole, on cells; 3T3 cells co-expressing both subunits; also called 3T3/hASIC1/3; 3T3-hASIC1/ASIC3
T3 sequence 1: T1 sequence
T3 sequence 2: T2 sequence (looked up)

B1: H3M6715N (antibody, V domains shown)
VH: EELVLESGGGLVQPGGSLRLSCAASGFMFSTYAMSWVRQAPGKGLEWVSLISGRDGNTYYADSVKGRFTISRDNSRNTLYLQLNSLRAEDTALYYCAKDTAVVPGYGMDVWGQGTTVTVSS
VL: DIQMTQSPATLSASVGDRVTITCRASQTISNWLAWYQQRPGKAPKLLIYKASSLETGVPSRFSGSGSGTEFTLTISSLQPDDFASYYCQQYNSYSWTFGQGTKVEIK
notes: Chimeric: human variable, mouse constant domains; H3M prefix marks the Fc, isotype not spelled out
B2: H3M6760N (antibody, V domains shown)
VH: B1 VH with E2D, L3R, T31S, L93V
VL: B1 VL with A9S, T28S, T56S
notes: as for B1
B3: H3M6713N (antibody, V domains shown)
VH: B1 VH with N57S, N74I, Q82H, L93V, M108L
VL: B1 VL
notes: as for B1
B4: H4H6364P (antibody, human IgG4, V domains shown)
VH: EVQLVESGGGLVQSGGSLRLSCAASGFTFSRYWMSWVRQAPGKGLEWVANIKQDGSEKDYVDSVKGRFTISRDNTKSSLFLQMNSLRAEDTAVYYCAKERWNWNFFDYWGQGTLVTVSS
VL: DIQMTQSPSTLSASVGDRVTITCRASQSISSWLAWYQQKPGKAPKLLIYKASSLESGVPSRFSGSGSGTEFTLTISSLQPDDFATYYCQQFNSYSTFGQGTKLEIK
B5: H4H6363P (antibody, V domains shown)
VH: EVQLLESGGGLVQPGGSLRLSCAASGFIFTNYAMTWLRQAPGKGLEWVSALSGSGGTTYYADSVKGRFTTSRDNSKNTLYLQMNSLRAEDTAVYYCAKDPHYYGSGNDYFYYYGLDVWGRGTTVTVSS
VL: not shown
B6: H1M6712N (antibody, mouse IgG1, V domains shown)
VH: QVQLVQSGAEVKKPGASMKVSCKASGYTFTIYDINWVRQATGQGLEWMGWMNPRSGSTGYSQKFQGRVTMTRNTSINTAFMELSSLRSDDTAVYYCVRGQLVLGYWGQGTLVTVSS
VL: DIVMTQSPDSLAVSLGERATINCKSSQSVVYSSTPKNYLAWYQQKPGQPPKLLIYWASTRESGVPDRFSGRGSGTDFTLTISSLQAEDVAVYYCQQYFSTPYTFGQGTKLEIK
B7: H4H7101N (antibody, human IgG4, V domains shown)
VH: EVQLLASGGGLVQTGGSLRLSCAASGFTFSSFAMSWVRQAPGKGLEWVSGISGSGGSTYYADSVKGRFTISRDNSKNTLYLQMNSLRAEDTAAYYCAKEAYKWQPWGQGIRVTVSS
VL: DIQMTQSPSTLSASVGDRVTITCRASQSISSWLAWYQQKPGKAPNLLIYKTSNLESGVPSRFSGSGSGTEFTLTISSLQPDDFATYYCQQYNSYSYTFGQGTKLEIK

Numbering of substitutions follows the chain as printed. In names and notes the source's numbering stands.

The first assay has as its target T1, human ASIC1. The assay is described as follows: FACS titration, 3T3/hASIC1 cells. As to the method: To perform the FACS binding experiments, adherent cells were collected using 1 mM EDTA in PBS, then washed, and re-suspended in cold PBS containing 5% FBS. For each binding experiment, each anti-ASIC1 antibody ([…] or ND7 cells) was added to 250,000 cells in 500 μL of PBS with 5% FBS. After incubation for 20 minutes at room temperature, a secondary antibody which recognizes human Fc (Cat. No. 109-136-098, Jackson ImmunoResearch Laboratories, Inc., West Grove, Pa.) or mouse Fc (Cat. No. 550826, BD Biosciences, San Jose, Calif.) and is conjugated to allophycocyanin, was then added to the cell mixture at a final concentration of 13.3 nM. After incubating for 20 minutes on ice, the cells were washed and resuspended in PBS containing 5% FBS, then sorted and analyzed on a flow cytometer (FACSCalibur, BD Biosciences, San Jose, Calif.) to determine relative binding by the candidate antibodies to the tested cell lines. Histograms of cells stained with anti-ASIC1 antibodies were compared with those of cells stained with secondary antibody alone. Percentage of ASIC1 signal over secondary antibody alone was calculated using FlowJo software (Tree Star, Ashland, Oreg.).
Regarding B1, the response was half-maximal at 0.072 nM (EC50).
Turning to B2, a half-maximal response (EC50) required 0.853 nM.
The same measure, in the same setting: to B3 belongs 0.215 nM; to B4, 1.5 nM.
In the case of B5, the EC50 (as a rule, the concentration needed to bring the measured effect to its halfway point) is 0.836 nM.
For the molecule B6, the EC50 is < 0.1 nM.

The target of a further assay is T2, human ASIC3. The assay is described as follows: FACS, 3T3/hASIC3 cells. An excerpt:
(§1) For these experiments, four cell lines were constructed: (a) a mouse fibroblast 3T3 cell line stably transfected to overexpress full length human ASIC3 (3T3/hASIC3; amino acids 1-531 of NCBI accession number NP_{—}004760.1), (b) a 3T3 cell line stably transfected to co-express full length human ASIC1a and human ASIC3 (3T3/hASIC1/3; amino acids 1-528 of NCBI accession number NP_{—}001086.2 and amino acids 1-531 of NCBI accession number NP_{—}004760.1), (c) […] a stably transfected 3T3 cell line expressing the full-length mouse ASIC3 channel (3T3/mASIC3; amino acids 1-530 of NCBI accession number NP_{—}892045.2), and (d) a 3T3 cell line stably transfected to co-express full length mouse ASIC1a and mouse ASIC3 (3T3/mASIC1/3; amino acids 1-526 of NCBI accession number NP_{—}033727 and amino acids 1-530 of NCBI accession number NP_{—}892045.2). Antibody binding was determined using flow cytometry (FACS).
(§2) To perform the FACS binding experiments, adherent cells were collected with cold Millipore Accutase 3-5 minutes, spun and resuspended in ice-cold FACS buffer (PBS, 2% HI-FBS and 0.09% Na-azide). Anti-ASIC1 antibody at final concentrations of 10 nM was added for 20-30 minutes on ice. Cells were washed with 900 μL ice-cold FACS buffer, spun, and resuspended in 100 μL ice-cold FACS buffer. A secondary antibody which recognizes human Fc (Jackson Immuno Research, #109-136-098) and is conjugated to allophycocyanin, was then added to the cell mixture at a final concentration of 2.5 ug/mL. After incubating for 20 minutes on ice, the cells were washed and resuspended in FACS buffer, then sorted and analyzed on a flow cytometer (FACSCanto II, BD Biosciences, San Jose, Calif.) to determine relative binding by the candidate antibodies to the tested cell lines. Histograms of cells stained with anti-ASIC1 antibodies were compared with those of cells stained with secondary antibody alone. Percentage of ASIC1 signal over secondary antibody alone was calculated using FlowJo software (Tree Star, Ashland, Oreg.).
On the technique in general: A flow cytometer gives signals particle by particle.
Consider B1, for which the binding result is given as “no binding (tested: 10 nM; gated lower than 1%)”.
As for B2, the binding result is “no binding (tested: 10 nM; gated lower than 1%)”.
As to B3, the binding result is given as “no binding (tested: 10 nM; gated lower than 1%)”.
B7: the binding result was “no binding (tested: 10 nM; gated lower than 1%)”.

The target of a further assay is T3, human ASIC1/ASIC3 channels …. The assay is described as follows: FACS, 3T3/hASIC1/3 cells, 10 nM antibody.
Excerpt: as §1, §2
Turning to B1, the binding result is reported as “binds”.
On to B2, for which the binding result was “binds”.
Turning to B3, the binding result is listed as “binds”.
As to B4, the binding result was “binds”.
On to B5, for which the binding result is reported as “binds”.
As to B6, the binding result is reported as “binds”.
For B7, the binding result was “binds”.

Another assay deals with T1, human ASIC1. The assay is described as follows: cell-based or functional assay.
As to B1, the “Current inhibition (%) at 100 nM antibody, Q-Patch, pH 6.0” value (“Current inhibition (%)” for short) was 30%.
For B4, the “Current inhibition (%)” value turned out to be 0%.
B5: the “Current inhibition (%)” value amounted to 0%.
As to B6, the “Current inhibition (%)” value was found to be 0%.

A further assay concerns the target T2, human ASIC3. The assay is described as follows: FACS, 3T3/hASIC3 cells, 10 nM antibody.
Excerpt: as §1, §2
Take B4: the binding result is “binds”.
For B5, the binding result was “binds”.
Regarding B6, the binding result is recorded as “binds”.

The target in the next assay is T1, human ASIC1. The experiment in a line: cell-based or functional assay. This is another data set of the same source.
In the case of B1, the “FLIPR Dose Curve, pH 5.0 % Block” value stood at 10%; the “FLIPR Dose Curve, pH 5.5 % Block” value was 39%; the “FLIPR Dose Curve, pH 5.5 IC50” value is 0.1 nM.
Take B2: the “FLIPR Dose Curve, pH 5.0 % Block” value is 56%; the “FLIPR Dose Curve, pH 5.0 IC50” value is 1 nM; the “FLIPR Dose Curve, pH 5.5 % Block” value was 71%; the “FLIPR Dose Curve, pH 5.5 IC50” value amounted to 0.9 nM.
For the molecule B3, the “FLIPR Dose Curve, pH 5.0 % Block” value came to 23%; the “FLIPR Dose Curve, pH 5.5 % Block” value turned out to be 63%; the “FLIPR Dose Curve, pH 5.5 IC50” value was 0.2 nM.
For the molecule B6, the “FLIPR Dose Curve, pH 5.0 % Block” value worked out at 10%; the “FLIPR Dose Curve, pH 5.5 % Block” value amounted to 64%; the “FLIPR Dose Curve, pH 5.5 IC50” value came to 6 nM.

Values taken from patent US20140056907A1 (Regeneron, published 2014).
